The subject of assay [1] is male C57EL/6J mice. Nature of the assay: 3-Days Continuous Subcutaneous Administration Test-1 (food intake suppressing activity). Type of assay: in vivo, mouse. The following applies: 0.03 mg/kg/day, subcutaneous Alzet pump, food consumption over 3 days; relative to food intake suppression rate for PYY(3-36) (1 mg/kg/day) taken as 100%. As to the method: (4) Test Method: 3-Days Continuous Subcutaneous Administration Test-1
The food intake suppressing activity of the compound of the present invention was examined by the method described below.
The test compound was dissolved in 50% DMSO so that sustained release would occur at 0.03 mg/kg/day, and the solution was filled in the Alzet Pump (Alzet model: 1003D, sustained release rate: 1 μL/hr, capacity: 100 μL). After the filling, the pump was placed in a 2 mL Eppendorf tube containing 330 μL of physiological saline, and incubated at 37° C. for 2 hours or more. Thereafter, this pump was subcutaneously embedded in the back of each mouse by the method described below. After weighing, each male […] mice at 12-13 weeks of age (25° C., allowed to take food and water ad libitum; 12-hour bright-12-hour dark cycle, lighting turned on at 08:00) was anesthetized with diethyl ether; the skin in the upper back thereof was incised, and the above-mentioned pump was embedded subcutaneously. Thereafter, several drops of penicillin solution (100000 units/mL) were added to the incised part, and the incision was sutured using Michel's surgical needle. This mouse was returned to the rearing cage (reared alone), and given previously weighed food; 3 days later, the amount of remaining food was measured. Food consumption was calculated by subtracting the amount of remaining food after 3 days from the weight of the food given on the day of pump embedding. The food intake suppressing activity of each test compound was expressed as a food intake suppression rate (%) relative to the food intake suppression rate for PYY(3-36) (1 mg/kg/day) taken as 100%.

Assay [2] deals with T1, human Y2 receptor (Homo sapiens, UniProt P49146).
T1 construct: expressed in transfected cells; membrane fraction
T1 sequence (P49146 1-381): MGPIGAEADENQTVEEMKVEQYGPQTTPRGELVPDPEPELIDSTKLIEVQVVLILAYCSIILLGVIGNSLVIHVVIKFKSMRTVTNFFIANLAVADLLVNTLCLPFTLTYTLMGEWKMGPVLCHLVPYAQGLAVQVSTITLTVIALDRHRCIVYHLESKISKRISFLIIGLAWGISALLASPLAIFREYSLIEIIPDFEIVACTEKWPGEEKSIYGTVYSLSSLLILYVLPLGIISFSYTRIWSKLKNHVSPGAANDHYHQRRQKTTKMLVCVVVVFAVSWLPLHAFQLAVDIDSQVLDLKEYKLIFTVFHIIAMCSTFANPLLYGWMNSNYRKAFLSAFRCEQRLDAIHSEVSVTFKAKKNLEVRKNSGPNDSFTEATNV
The assay can be described thus: Receptor Binding Assay (RBA) for Human Y2, [125I]-PYY displacement on hY2R/CHO membrane fraction. To be noted: IC50 of test compound/IC50 of PYY(3-36) (PYY(3-36) taken as 1). In a few lines: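 Read-out is [125I]-PYY displacement from membranes of CHO/dhfr− cells stably transfected with human Y2R. Membranes were obtained by disrupting cells in a buffer of 10 mM NaHCO3, 5 mM EDTA and protease inhibitors.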

For assay [3], the target named is T1, human Y2 receptor. Nature of the assay: Human Y2 Receptor G Protein Binding Assay (GBA), [35S]GTPγS. Type of assay: biochemical. The following applies: EC50 of test compound/EC50 of PYY(3-36) (PYY3-36 taken as 1), hY2R/CHO membrane fraction. The method in brief:
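Agonism measured as [35S]GTPγS binding, read by GF/C filtration and scintillation counting after 120 min at room temperature, using human Y2 membranes at 1 μg protein/mL in pH 7.4 Tris/MgCl2/NaCl/GDP buffer. Compound serially diluted 100 μM–1 nM; EC50 normalized to PYY(3-36) (ratio = compound/PYY).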
On the technique in general: GTPγS resists hydrolysis and so accumulates on activated G proteins.

Experimental findings from patent publication US9260500B2, “Peptide and use thereof” (Takeda Pharmaceutical Company Limited, priority 2009, dated 2016) are described below.

Starred links: 1 amine or outer side, 2 acyl side, 3 side chain; linkers in the order of their positions; H or OH if unused. Non-standard residues stand in square brackets, D forms with d. *: point of attachment. X11 = ((1S)-1-carboxy-3-methylbutyl)carbamoyl, CC(C)C[C@H](NC(=O)*)C(=O)O; Azetidine3carboxylic = O=C(C1CN([*:1])C1)[*:2]; tBuAla = CC(C)(C)C[C@H](N)C(=O)O; 4Pal = N[C@@H](Cc1ccncc1)C(=O)O; Cha = N[C@@H](CC1CCCCC1)C(=O)O; Isonicotinoyl = O=C(c1ccncc1)*; dIva = CC[C@@](C)(N)C(=O)O; Isobutyryl = CC(C)C(=O)*; Nle = CCCC[C@H](N)C(=O)O; Abu = CC[C@H](N)C(=O)O; Aib = CC(C)(N)C(=O)O; Bz = O=C(c1ccccc1)*

For “[(1S)-1-carboxy-3-methylbutyl]carbamoyl-[D-Pro24, Cha27,36, Leu(Me)28, Lys30, Aib31]-PYY(23-36) (X11-S[dP]RH[Cha][tBuAla]NK[Aib]TRQR[Cha]-NH2; SMILES CC(C)C[C@H](NC(=O)N[C@@H](CO)C(=O)N1CCC[C@@H]1C(=O)N[C@@H](CCCNC(=N)N)C(=O)N[C@@H](Cc1c[nH]cn1)C(=O)N[C@@H](CC1CCCCC1)C(=O)N[C@@H](CC(C)(C)C)C(=O)N[C@@H](CC(N)=O)C(=O)N[C@@H](CCCCN)C(=O)NC(C)(C)C(=O)N[C@H](C(=O)N[C@@H](CCCNC(=N)N)C(=O)N[C@@H](CCC(N)=O)C(=O)N[C@@H](CCCNC(=N)N)C(=O)N[C@@H](CC1CCCCC1)C(N)=O)[C@@H](C)O)C(=O)O) [compound No. 253]”, in assay [1], the “food intake suppression rate (%)” value was 19%.

“Ac-[Glu23, D-Pro24, Cha27,28,36, Lys30, Aib31]-PYY(23-36) (Ac-E[dP]RH[Cha][Cha]NK[Aib]TRQR[Cha]-NH2; SMILES CC(=O)N[C@@H](CCC(=O)O)C(=O)N1CCC[C@@H]1C(=O)N[C@@H](CCCNC(=N)N)C(=O)N[C@@H](Cc1c[nH]cn1)C(=O)N[C@@H](CC1CCCCC1)C(=O)N[C@@H](CC1CCCCC1)C(=O)N[C@@H](CC(N)=O)C(=O)N[C@@H](CCCCN)C(=O)NC(C)(C)C(=O)N[C@H](C(=O)N[C@@H](CCCNC(=N)N)C(=O)N[C@@H](CCC(N)=O)C(=O)N[C@@H](CCCNC(=N)N)C(=O)N[C@@H](CC1CCCCC1)C(N)=O)[C@@H](C)O) [compound No. 137]”: in assay [1], the “food intake suppression rate (%)” value was 25%.

“4-Pyridinecarbonyl-[Glu23, D-Pro24, Pya(4)26, Cha27,36, Aib28,31, Lys30]-PYY(23-36) (Isonicotinoyl-E[dP]R[4Pal][Cha][Aib]NK[Aib]TRQR[Cha]-NH2; SMILES C[C@@H](O)[C@H](NC(=O)C(C)(C)NC(=O)[C@H](CCCCN)NC(=O)[C@H](CC(N)=O)NC(=O)C(C)(C)NC(=O)[C@H](CC1CCCCC1)NC(=O)[C@H](Cc1ccncc1)NC(=O)[C@H](CCCNC(=N)N)NC(=O)[C@H]1CCCN1C(=O)[C@H](CCC(=O)O)NC(=O)c1ccncc1)C(=O)N[C@@H](CCCNC(=N)N)C(=O)N[C@@H](CCC(N)=O)C(=O)N[C@@H](CCCNC(=N)N)C(=O)N[C@@H](CC1CCCCC1)C(N)=O) [compound No. 215]”: the “RBA IC50 Ratio” value in assay [2] is reported as 1.9. Further, in assay [3], the “GBA EC50 Ratio” value was 1.8.

Regarding “4-Pyridinecarbonyl-[Glu23, D-Pro24, Nle25, Pya(4)26, Cha27,36, Aib28,31, Lys30]-PYY(23-36) (Isonicotinoyl-E[dP][Nle][4Pal][Cha][Aib]NK[Aib]TRQR[Cha]-NH2; SMILES CCCC[C@H](NC(=O)[C@H]1CCCN1C(=O)[C@H](CCC(=O)O)NC(=O)c1ccncc1)C(=O)N[C@@H](Cc1ccncc1)C(=O)N[C@@H](CC1CCCCC1)C(=O)NC(C)(C)C(=O)N[C@@H](CC(N)=O)C(=O)N[C@@H](CCCCN)C(=O)NC(C)(C)C(=O)N[C@H](C(=O)N[C@@H](CCCNC(=N)N)C(=O)N[C@@H](CCC(N)=O)C(=O)N[C@@H](CCCNC(=N)N)C(=O)N[C@@H](CC1CCCCC1)C(N)=O)[C@@H](C)O) [compound No. 228]”, the “RBA IC50 Ratio” value in assay [2] was determined as 8.1. Besides, in assay [3], the “GBA EC50 Ratio” value amounted to 5.7.

Turning to “Ac-[Phe23, D-Pro24, Abu26, Cha27,28,36, Aib31]-PYY(23-36) (Ac-F[dP]R[Abu][Cha][Cha]NL[Aib]TRQR[Cha]-NH2; SMILES CC[C@H](NC(=O)[C@H](CCCNC(=N)N)NC(=O)[C@H]1CCCN1C(=O)[C@H](Cc1ccccc1)NC(C)=O)C(=O)N[C@@H](CC1CCCCC1)C(=O)N[C@@H](CC1CCCCC1)C(=O)N[C@@H](CC(N)=O)C(=O)N[C@@H](CC(C)C)C(=O)NC(C)(C)C(=O)N[C@H](C(=O)N[C@@H](CCCNC(=N)N)C(=O)N[C@@H](CCC(N)=O)C(=O)N[C@@H](CCCNC(=N)N)C(=O)N[C@@H](CC1CCCCC1)C(N)=O)[C@@H](C)O) [compound No. 107]”, the “RBA IC50 Ratio” value in assay [2] turned out to be 12. Moreover, the “GBA EC50 Ratio” value in assay [3] came out at 5.9.

For the substance “Ac-[Ala26, Ile28,31, Arg(Me)35]-PYY(22-36) [compound No. 1]”, in assay [2], the “RBA IC50 Ratio” value is 50. Further, in assay [3], the “GBA EC50 Ratio” value is given as 13.

As for “Ac-[Abu23, D-Pro24, Abu26, Cha27,28,36, Aib31]-PYY(23-36) (Ac-[Abu][dP]R[Abu][Cha][Cha]NL[Aib]TRQR[Cha]-NH2; SMILES CC[C@H](NC(=O)[C@H](CCCNC(=N)N)NC(=O)[C@H]1CCCN1C(=O)[C@H](CC)NC(C)=O)C(=O)N[C@@H](CC1CCCCC1)C(=O)N[C@@H](CC1CCCCC1)C(=O)N[C@@H](CC(N)=O)C(=O)N[C@@H](CC(C)C)C(=O)NC(C)(C)C(=O)N[C@H](C(=O)N[C@@H](CCCNC(=N)N)C(=O)N[C@@H](CCC(N)=O)C(=O)N[C@@H](CCCNC(=N)N)C(=O)N[C@@H](CC1CCCCC1)C(N)=O)[C@@H](C)O) [compound No. 105]”, the “RBA IC50 Ratio” value in assay [2] is 6.9. Also, the “GBA EC50 Ratio” value in assay [3] is reported as 4.0.

As for “Isobutanoyl-[Abu26, Cha27,36, His28, Aib31]-PYY(25-36) (Isobutyryl-R[Abu][Cha]HNL[Aib]TRQR[Cha]-NH2; SMILES CC[C@H](NC(=O)[C@H](CCCNC(=N)N)NC(=O)C(C)C)C(=O)N[C@@H](CC1CCCCC1)C(=O)N[C@@H](Cc1c[nH]cn1)C(=O)N[C@@H](CC(N)=O)C(=O)N[C@@H](CC(C)C)C(=O)NC(C)(C)C(=O)N[C@H](C(=O)N[C@@H](CCCNC(=N)N)C(=O)N[C@@H](CCC(N)=O)C(=O)N[C@@H](CCCNC(=N)N)C(=O)N[C@@H](CC1CCCCC1)C(N)=O)[C@@H](C)O) [compound No. 101]”, the “RBA IC50 Ratio” value in assay [2] came out at 19. For the same substance, in assay [3], the “GBA EC50 Ratio” value was found to be 13.

In the case of “Ac-[Aze(3)24, Cha27,28,36, Aib31]-PYY(23-36) (Ac-S[Azetidine3carboxylic]RH[Cha][Cha]NL[Aib]TRQR[Cha]-NH2; SMILES CC(=O)N[C@@H](CO)C(=O)N1CC(C(=O)N[C@@H](CCCNC(=N)N)C(=O)N[C@@H](Cc2c[nH]cn2)C(=O)N[C@@H](CC2CCCCC2)C(=O)N[C@@H](CC2CCCCC2)C(=O)N[C@@H](CC(N)=O)C(=O)N[C@@H](CC(C)C)C(=O)NC(C)(C)C(=O)N[C@H](C(=O)N[C@@H](CCCNC(=N)N)C(=O)N[C@@H](CCC(N)=O)C(=O)N[C@@H](CCCNC(=N)N)C(=O)N[C@@H](CC2CCCCC2)C(N)=O)[C@@H](C)O)C1) [compound No. 113]”, in assay [2], the “RBA IC50 Ratio” value was 11. The “GBA EC50 Ratio” value in assay [3] stood at 4.7.

Regarding “Benzoyl-[Cha27,36, Ile28, Pya(4)31]-PYY(25-36) (Bz-RH[Cha]INL[4Pal]TRQR[Cha]-NH2; SMILES CC[C@H](C)[C@H](NC(=O)[C@H](CC1CCCCC1)NC(=O)[C@H](Cc1c[nH]cn1)NC(=O)[C@H](CCCNC(=N)N)NC(=O)c1ccccc1)C(=O)N[C@@H](CC(N)=O)C(=O)N[C@@H](CC(C)C)C(=O)N[C@@H](Cc1ccncc1)C(=O)N[C@H](C(=O)N[C@@H](CCCNC(=N)N)C(=O)N[C@@H](CCC(N)=O)C(=O)N[C@@H](CCCNC(=N)N)C(=O)N[C@@H](CC1CCCCC1)C(N)=O)[C@@H](C)O) [compound No. 71]”, the “RBA IC50 Ratio” value in assay [2] is 7.6. Also, the “GBA EC50 Ratio” value in assay [3] was found to be 8.5.

Regarding “Ac-[D-Pro24, Pya(4)26, Cha27,36, D-Iva28, Lys30, Aib31]-PYY(23-36) (Ac-S[dP]R[4Pal][Cha][dIva]NK[Aib]TRQR[Cha]-NH2; SMILES CC[C@@](C)(NC(=O)[C@H](CC1CCCCC1)NC(=O)[C@H](Cc1ccncc1)NC(=O)[C@H](CCCNC(=N)N)NC(=O)[C@H]1CCCN1C(=O)[C@H](CO)NC(C)=O)C(=O)N[C@@H](CC(N)=O)C(=O)N[C@@H](CCCCN)C(=O)NC(C)(C)C(=O)N[C@H](C(=O)N[C@@H](CCCNC(=N)N)C(=O)N[C@@H](CCC(N)=O)C(=O)N[C@@H](CCCNC(=N)N)C(=O)N[C@@H](CC1CCCCC1)C(N)=O)[C@@H](C)O) [compound No. 234]”, in assay [2], the “RBA IC50 Ratio” value is 1.7. Also, the “GBA EC50 Ratio” value in assay [3] was found to be 2.6.
